Measurements reported in publication doi:10.1101/713933.

Biological target: portal protein of bacteriophage P23-45 (in situ, in the procapsid) (bacteriophage P23-45 (Thermus thermophilus phage))
Test: cryo-EM structure

For “portal protein of bacteriophage P23-45 (in situ, in the procapsid) (natural protein)”, the stoichiometry N was 12 subunits.
